Among the data in US20220251562, “Anti-CD3 Aptamers for Use in Cell Targeting and Labeling” (Ixaka France, published 2022) are binding result and Kd values, retold here.

In series [1] the target is T1, IgG1 Fc (counter target) (Homo sapiens, UniProt P01857-1 P01857-1:100-330). In words: SPR; no interaction observed. The conditions noted are these: tags: AcroBiosystems; chain copies: 2; label: 5'-biotin-TEG. As for the experimental part:
(§1) Binding affinity measurements with the most interesting anti-CD3 aptamers derived from the core sequence were performed using a BIAcore T200 instrument (GE Healthcare) as already described in Example 4. To analyze interactions between aptamers and CD3 proteins, biotinylated aptamers were immobilized at a lower density than in Example 4 (100-500 RU) on Series S Sensor chips SA (GE Healthcare) according to manufacturer's instructions (GE Healthcare). Mouse and Cynomolgus CD3 ε/δ were purchased from AcroBiosystems. For human proteins, the highest concentration used was 100 nM and 1 μM for mouse and cynomolgus antigens. Other concentrations were obtained by 3-fold dilutions.
(§2) Table 8 below provides a summary of KD values obtained from surface plasmon resonance measurements. […] Variants of the core sequence identified in cell binding assays (CELTIC_core_12, CELTIC_core_24, CELTIC_core_29, CELTIC_core_40 and CELTIC_core_42) were all confirmed to have better affinities than the unmodified aptamer with human CD3 ε/γ. As already observed in Example 4, the affinities were in general slightly lower with CD3 ε/δ which is a consequence of the SELEX strategy that included more rounds on the CD3 ε/γ isoform. None of these sequences did bind to the Fc region of human IgG1.
(In SPR one partner is held on a chip, and binding of the other changes the refractive index at the surface.)

Series [2] concerns the target T1, IgG1 Fc (counter target). In words: SPR; no interaction observed; printed CELTIC_CD3_22. The conditions noted are these: tags: AcroBiosystems; chain copies: 2; label: 5'-biotin-TEG. On the procedure:
(§3) Binding affinity measurements were performed using a BIAcore T200 instrument (GE Healthcare). To analyze interactions between aptamers and CD3 proteins, 1000 Resonance Units of biotinylated aptamers were immobilized on Series S Sensor chips SA (GE Healthcare) according to manufacturer's instructions (GE Healthcare). SELEX buffer was used as the running buffer. The interactions were measured in the “Single Kinetics Cycle” mode at a flow rate of 30 μl/min and by injecting different concentrations of human CD3 ε/γ, CD3 ε/δ, IgG1 Fc and mouse CD3 ε/δ (Sino Biological). The highest protein concentration used was 100 nM. Other concentrations were obtained by 3-fold dilution. All kinetic data of the interaction were evaluated using the BIAcore T200 evaluation software. Table 3 below provides a summary of KD values obtained from surface plasmon resonance measurements.

Series [3] addresses T2, CD3 epsilon/gamma heterodimer (Homo sapiens, UniProt P07766;P09693 P07766:23-126,P09693:23-116). The series is described as follows: SPR; steady state; kinetic 104 pM (Table 8). The note with it: tags: C-terminal human IgG1 Fc fusion, AcroBiosystems; chain copies: heterodimer 1:1 (inferred); label: biotin; G4 predicted. As for the experimental part: as §1
Table 9 below provides a summary of KD values obtained from surface plasmon resonance measurements performed with human CD3 ε/γ and mouse and cynomolgus CD3 ε/δ. […] In these conditions, 3′-3′ deoxy-thymidine-modified versions of the latest four aptamers performed equally well. All these sequenced-optimized aptamers were able to bind the murine and cynomolgus CD3 ε/δ isoforms confirming the cross-specificity of the CD3 aptamers already observed in Examples 3 and 5.

The target in series [4] is T3, CD3 epsilon/delta heterodimer (Homo sapiens, UniProt P07766;P04234 P07766:23-126,P04234:22-105). In words: SPR; kinetic. The note with it: tags: C-terminal human IgG1 Fc fusion, AcroBiosystems; chain copies: heterodimer 1:1 (inferred); label: biotin; G4 predicted. As for the experimental part: as §1, §2
Series [5] addresses T2, CD3 epsilon/gamma heterodimer. The series is described as follows: SPR; kinetic, DPBS. The note with it: tags: C-terminal human IgG1 Fc fusion, AcroBiosystems; chain copies: heterodimer 1:1 (inferred); label: 5'-biotin-TEG. On the procedure:
as §3
(§4) Binding of anti-CD3 RNA aptamers to each of purified recombinant human CD3 ε/γ and CD3 ε/δ proteins was measured using surface plasmon resonance. Binding studies were performed generally as described in Example 5 except that SELEX buffer was replaced by DPBS. The highest protein concentration used was 300 nM. Other concentrations were obtained by 3-fold dilution. Binding to hIgG1 Fc was used as control. Binding to murine CD3 do (mCD3 c/S) was also measured.

In series [6] the target is T3, CD3 epsilon/delta heterodimer. In words: SPR; NA, DPBS. The conditions noted are these: tags: C-terminal human IgG1 Fc fusion, AcroBiosystems; chain copies: heterodimer 1:1 (inferred); label: 5'-biotin-TEG. On the procedure:
as §3, §4

The target in series [7] is T1, IgG1 Fc (counter target). In words: SPR; NA, DPBS. The note with it: tags: AcroBiosystems; chain copies: 2; label: 5'-biotin-TEG. As for the experimental part: as §3, §4
Series [8] concerns the target T1, IgG1 Fc (counter target). The series is described as follows: SPR; no interaction observed. The note with it: tags: AcroBiosystems; chain copies: 2; label: 5'-biotin-TEG. On the procedure:
as §3
This is another data set of the same source.

Series [9] addresses T2, CD3 epsilon/gamma heterodimer. In words: SPR; steady state; kinetic 65.2 nM (Table 6). The note with it: tags: C-terminal human IgG1 Fc fusion, AcroBiosystems; chain copies: heterodimer 1:1 (inferred); label: 5'-biotin-TEG. On the procedure: as §3
The target in series [10] is T3, CD3 epsilon/delta heterodimer. In words: SPR; steady state; kinetic 3.2 uM (Table 6). The conditions noted are these: tags: C-terminal human IgG1 Fc fusion, AcroBiosystems; chain copies: heterodimer 1:1 (inferred); label: 5'-biotin-TEG. On the procedure:
as §3

The target is the same in series [11]. In words: SPR; steady state; kinetic 3.7 nM (Table 3), 9.9 nM (Table 6), 217 pM (Table 8). The conditions noted are these: tags: C-terminal human IgG1 Fc fusion, AcroBiosystems; chain copies: heterodimer 1:1 (inferred); label: 5'-biotin-TEG. As for the experimental part:
as §3

The target of series [12] is T2, CD3 epsilon/gamma heterodimer. In words: SPR; steady state; kinetic fits 5 nM (Table 3), 5.2 nM (Table 6), 119 pM (Table 8), 156 nM steady state (Table 9); SELEX buffer Mg Ca. The conditions noted are these: tags: C-terminal human IgG1 Fc fusion, AcroBiosystems; chain copies: heterodimer 1:1 (inferred); label: 5'-biotin-TEG. As for the experimental part:
as §3

The target of series [13] is T1, IgG1 Fc (counter target). The series is described as follows: SPR; NA, no interaction; Table 3 prints 56.3 mM. The conditions noted are these: tags: AcroBiosystems; chain copies: 2; label: 5'-biotin-TEG. As for the experimental part: as §3

T3 sequence (P07766 23-126, stated change not applied, chain 1 of 2): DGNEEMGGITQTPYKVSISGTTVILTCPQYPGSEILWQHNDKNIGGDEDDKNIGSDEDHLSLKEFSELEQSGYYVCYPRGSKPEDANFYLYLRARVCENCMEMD
T3 sequence (P04234 22-105, stated change not applied, chain 2 of 2): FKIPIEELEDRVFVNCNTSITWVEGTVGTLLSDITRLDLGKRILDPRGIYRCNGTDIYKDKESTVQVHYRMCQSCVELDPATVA
T2 sequence (P07766 23-126, chain 1 of 2): as the sequence (P07766 23-126, stated change not applied, chain 1 of 2) above
T2 sequence (P09693 23-116, chain 2 of 2): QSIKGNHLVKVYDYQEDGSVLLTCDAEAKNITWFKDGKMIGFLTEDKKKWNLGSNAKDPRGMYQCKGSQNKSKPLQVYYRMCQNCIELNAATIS

With GGGTTTGGCATCGGGTCTGGC (ssDNA, 5'-HEG, 3'-3' dT), the binding result with IgG1 Fc (counter target) [1] is “no binding”.
Take CGACCACAGGGGTTTGGCTTCGGGACTGGCGGTGGGCACT (ssDNA) [CELTIC_22s]: the binding result in the series with IgG1 Fc (counter target) [2] is on record as “no binding”.
As usually defined, the Kd is a measure of binding affinity in units of concentration. As for GGGTTTGGCATCGGGTCTGGC (ssDNA, 5'-HEG; 3'-3' dT), the values for the Kd in series [3] and in [4] were 156 nM and 0.01 nM, respectively.
In turn, GAUGAUAUCUUUAAUAUCAAUUGCAGCGAUUCUUGUUUGAGAAUAAAC (ssRNA, 2'-F pyrimidines) [ARACD3-3130001] showed a Kd in [5] of 332 nM. The binding result (in series [6]; with IgG1 Fc (counter target) [7]) was “no binding” each time.
Take GAGGGGTTTGGCATCGGGCCTGGCGCCATTCAAGCTATGC (ssDNA) [CELTIC_2s]: the binding result with IgG1 Fc (counter target) [8] was “no binding”. The Kd in [9] amounted to 627 nM; in series [10], 260 nM.
In the case of TTTCCGGGTGGGGGTTTGGCACCGGGCCTGGCGCAGGGATTCG (ssDNA) [CELTIC_1s], the results for the Kd in [11] and in series [12] were 125 nM and 53 nM, respectively. The binding result in the series with IgG1 Fc (counter target) [13] was “no binding”.
